According to patent US8709448B2, “Anti-infective agents and uses thereof” (priority 2008, dated 2014):

Test system: PBMC

## IFNα
  effect on overall PBMC culture viability: no effect
